Values quoted from earlier work in PMC10213776.

Target: IL-18 (Homo sapiens) (UniProt Q14116)
Sequence (Q14116 37-193): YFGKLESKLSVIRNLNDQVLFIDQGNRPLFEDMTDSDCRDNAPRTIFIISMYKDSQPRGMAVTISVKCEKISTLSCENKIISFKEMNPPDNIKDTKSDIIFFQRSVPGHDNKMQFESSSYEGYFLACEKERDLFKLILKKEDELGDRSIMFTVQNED

Sequence of IL-18BP (O95998 31-194): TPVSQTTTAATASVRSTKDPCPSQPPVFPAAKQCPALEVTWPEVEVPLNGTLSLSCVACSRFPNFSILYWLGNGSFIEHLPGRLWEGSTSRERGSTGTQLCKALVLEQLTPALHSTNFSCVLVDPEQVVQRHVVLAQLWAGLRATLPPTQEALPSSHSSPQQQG

## IL-18BP (from UniProt O95998)
  Kd: 0.4 nM
